According to US20210277126A1 (LEGEND BIOTECH IRELAND, published 2021):
Substitutions are numbered along the chain they refer to.

B1: AS83457 sdAb (VHH)
VHH: QVQLVESGGGLVQPGGSLRLSCAASGFFFSIYDMNWFRQAPGKGLEWVSGITGNGYTTAYADSVKGRFTISRDNAKNTLYLQLNSLKSEDTAMYYCAQGSNRGRGTQVTVSS
notes: Camel sdAb tested as E. coli culture supernatant; not shown: C-terminal His-tag encoded by the soluble expression vector
B2: AS82494 sdAb (VHH)
VHH: B1 VHH with F28T, I31V, A59S, Q98K, G99E, S100T, R104Q
notes: as for B1
B3: AS83010 sdAb (VHH)
VHH: B1 VHH with A23V, I31A, A97T, Q98E, S100D, R104Q
notes: as for B1
B4: AS83591 sdAb (VHH)
VHH: QVQLVESGGGLVQPGGSLRLSCAASGFLFSIYDMNWVRQAPGKGVEWIAGITNNEHTTAYADSVKGRFTISRDNTKNTLFLQMNSLKPEDTAMYYCQRDDGQVRGQGTQVTVSS
notes: as for B1
B5: AS82718 sdAb (VHH)
VHH: QVQLAESGGGLVQTGGSLRLSCTASGLNFGLYAMGWFRQAPGKEREGVSCINGGGGITVYSDFVKSRFTISRDNAKNTLYLQMNSLKPDDTATYYCAADRSPFGSCSSDWSRSSDWSRMAEKFGYWGQGTQVTVSS
notes: as for B1
B6: AS83183 sdAb (VHH)
VHH: QVHLVESGGGSVQSGGSLRLSCAASGYAYRSYCMGWFRQAPGKVLEGVAAIESDGTTTYADSVMGRFTISQDNAKNALYLQMNSLKPEDTAMYHCAAVKGSCDSASSDTPSYWGQGTQVTVSS
notes: as for B1
B7: AS82658 sdAb (VHH)
VHH: QVQLVESGGGSVQAGGALSLSCAASGYTVRIDYMGWYRQTPGKGREPVATIASNGGTAYADSVEGRFTISQDNAKNSVYLQMNTLKPGDTAMYYCAAGTWPTLTYFGQGTQVTVSS
notes: as for B1
B8: AS83791 sdAb (VHH)
VHH: QVKLVESGGGLVQPGGSLRLSCVASGFAFSSADMSWVRQAPGKGVEAVSVINRDGASTYYADSVKGRFTISRDNAKSTLYLQMNSLKPEDTAMYHCAVVPENEYESGSYNYWGQGTQVTVSS
notes: Tested as E. coli culture supernatant; not shown: C-terminal His-tag encoded by the soluble expression vector
B9: AS83431 sdAb (VHH)
VHH: QVRLVESGGGSVQSGGSLRLSCAASGYARSSTCLGWFRQAPGKEVEGVAIIGRDGSTGYADSVKGRFTISQDNAKNTLYLHMDSLKPEDTAMYYCAAVEGGCEVSEGTGEQQLAYWGQGTQVTVSS
notes: as for B1
B10: AS83180 sdAb (VHH)
VHH: QVQLVESGGGSVQAGGSLRLSCVVSAATNCRYIAWYRQAPGKAREFVSTLGSDGNTNYADSVKGRFTISQGNIKNMAYLEMNSLKPEDTGMYYCGTRCQIGDDWRSSDWAQGTQVTVSS
notes: as for B1
B11: AS82544 sdAb (VHH)
VHH: EVQLVESGGALVQPGGSLRLSCTASGFLFRVYDMNWVRQAPGKGVEWIVGITNNGYTTAYADSVKGRFTISRDNTENTLFLQMNSLKPEDTAMYYCQTDNGRVRGQGTQVTVSS
notes: as for B1
B12: AS83478 sdAb (VHH)
VHH: QVHLMESGGGLVQPGESLRLSCAASGFIFANYEMSWVRQAPGKVLEWVSGINSRGNATYYADSVKGRFTISRDNAEHTLYLQMNSLKPEDTAMYHCVVGGMTTDQGSPDFYWGQGTQVTVSS
notes: as for B1
B13: AS83309 sdAb (VHH)
VHH: EVQLVESGGDLVRPGGSLRLSCAASGFTFSIYDMNWVRQAPGKGLEWVAGISGNGYSTSYAESVKGRFTISKDNAKNTVYLQLSSLKFEDTAMYYCVRGGEKWDENDLRRKGQGTQVTVSS
notes: as for B1
B14: AS82505 sdAb (VHH)
VHH: QVQLAESGGGLVQPGGSLRLSCVASGFTFSSYDMSWVRQAPGKGVEWVSTINSGGGSTYYAESAKGRFTISRDNAKNTLYLQLNSLKTEDTAMYYCVKGFPDDDGPGELSREYNYWGQGTQVTVSS
notes: as for B1
B15: AS82480 sdAb (VHH)
VHH: EVQLVESGGGSVQAGGSLRLSCAASGVTYSSACMGWFRQAPGKGREVVAVLYAGGSTTHYASSVKERFTISQDNAKNTVYLQMNSLKPEDTAVYYCAAALGDRSSCEWRYWGQGTQVTVSS
notes: as for B1

Assays:
[1] = target: T1, cynomolgus monkey CLL1 ECD (65-265) (cynomolgus monkey); assay: SPR (Biacore T200), sdAb supernatant, recombinant cynomolgus CLL1
T1 construct: Expressed in 293-F cells and purified by IMAC; also called cynoCLL1; recombinant cynomolgus monkey CLL1 protein
T1 chain: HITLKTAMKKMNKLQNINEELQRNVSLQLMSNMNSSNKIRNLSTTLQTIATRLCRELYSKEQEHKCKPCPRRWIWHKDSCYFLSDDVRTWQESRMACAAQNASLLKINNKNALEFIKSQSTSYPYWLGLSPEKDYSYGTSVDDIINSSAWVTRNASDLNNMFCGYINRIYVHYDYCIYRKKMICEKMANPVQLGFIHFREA
Method: (§1) The unique clones were grown in 2YT medium and induced by IPTG for sdAb expression in the supernatant. The supernatants of unique binders were analyzed for their ability to bind to a CLL1-expressing HKE293/huCLL-1 cell line and cancer cell line AML193 using a FACS assay. Affinities of selected binders in supernatants to recombinant human and cynomolgus monkey CLL1 proteins were determined by surface plasmon resonance (SPR) on a BIACORE® T200 instrument. The dissociation phase was used to calculate the kd values for each sdAb.

human CLL1 ECD (65-265) = target: T2, human CLL1 ECD (65-265) (human, UniProt Q5QGZ9 65-265); assay: SPR (Biacore T200), sdAb supernatant, recombinant human CLL1
T2 construct: Expressed in 293-F cells and purified by IMAC; also called huCLL1; recombinant human CLL1 protein
T2 sequence: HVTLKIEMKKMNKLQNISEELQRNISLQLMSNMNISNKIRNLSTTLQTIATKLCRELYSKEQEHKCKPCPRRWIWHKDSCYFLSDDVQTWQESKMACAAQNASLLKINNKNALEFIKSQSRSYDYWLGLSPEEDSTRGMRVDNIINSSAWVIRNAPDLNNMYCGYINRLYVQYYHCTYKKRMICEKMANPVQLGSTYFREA
Method: as §1

Kd [1] | Kd (human CLL1 ECD (65-265)) | Binder
19 nM | 31 nM | B1
98 nM | 21 nM | B2
3.2 nM | 8.4 nM | B3
19 nM | 31 nM | B4
2.6 nM | 24 nM | B5
0.26 nM | 1 nM | B6
1.9 nM | 1.6 nM | B7
0.22 nM | 0.44 nM | B8
0.24 nM | 0.37 nM | B9
2.4 nM | 3 nM | B10
39 nM | 8.6 nM | B11
1.4 nM | 2 nM | B12
0.63 nM | 7.3 nM | B13
0.59 nM | 0.83 nM | B14
47 nM | 1.5 nM | B15
